Data published in doi:10.1101/2024.07.03.601791 (bioRxiv, 2024).
Values joined by “and” are separate entries in the source; they are usually repeats but may differ in a detail not shown here. Identical values can stand only once.

Tests used:
Karyopherinβ2 (Kapβ2) [1] = target: T1, Karyopherinβ2 (Kapβ2) (human, UniProt Q92973-2 1-890); assay: SEC
T1 sequence (looked up): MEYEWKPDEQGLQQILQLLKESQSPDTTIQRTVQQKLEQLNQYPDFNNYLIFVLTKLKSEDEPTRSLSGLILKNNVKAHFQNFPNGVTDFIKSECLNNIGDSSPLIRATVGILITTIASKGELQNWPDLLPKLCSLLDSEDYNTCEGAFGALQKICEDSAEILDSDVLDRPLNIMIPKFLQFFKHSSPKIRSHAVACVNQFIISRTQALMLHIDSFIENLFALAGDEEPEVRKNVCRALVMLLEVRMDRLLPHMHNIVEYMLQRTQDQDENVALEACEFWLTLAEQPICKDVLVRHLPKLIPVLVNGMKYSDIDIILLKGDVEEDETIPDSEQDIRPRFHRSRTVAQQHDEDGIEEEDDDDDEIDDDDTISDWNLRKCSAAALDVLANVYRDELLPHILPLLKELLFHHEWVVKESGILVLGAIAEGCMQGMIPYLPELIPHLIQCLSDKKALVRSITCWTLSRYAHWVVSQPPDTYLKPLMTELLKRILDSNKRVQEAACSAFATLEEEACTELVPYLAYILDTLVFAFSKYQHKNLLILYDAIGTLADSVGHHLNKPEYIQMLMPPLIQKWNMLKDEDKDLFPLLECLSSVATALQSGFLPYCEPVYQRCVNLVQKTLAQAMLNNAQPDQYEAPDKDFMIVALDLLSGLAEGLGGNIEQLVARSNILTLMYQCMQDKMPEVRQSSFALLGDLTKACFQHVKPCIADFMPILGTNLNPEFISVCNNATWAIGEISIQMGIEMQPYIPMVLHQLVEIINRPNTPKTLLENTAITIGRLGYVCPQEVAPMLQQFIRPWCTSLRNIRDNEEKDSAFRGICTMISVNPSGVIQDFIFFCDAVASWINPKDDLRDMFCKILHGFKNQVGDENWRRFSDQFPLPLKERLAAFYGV

Karyopherinβ2 (Kapβ2) [2] = target: T1, Karyopherinβ2 (Kapβ2); assay: AUC
GTP-bound Ran (Q69L) = GTP-bound Ran (Q69L) (UniProt P62826 1-216, Q69L); assay: pull-down
Karyopherinβ2 (Kapβ2) [3] = target: T1, Karyopherinβ2 (Kapβ2); assay: chemical tongue
Karyopherinβ2 (Kapβ2) [4] = target: T1, Karyopherinβ2 (Kapβ2); assay: hydrogel binding assay
[5] = target: T2, mCherry fusion LC-domain of FUS (residue 2–214, mCh:FUS-LC) (UniProt P35637 2-214); assay: hydrogel binding assay
T2 sequence (looked up): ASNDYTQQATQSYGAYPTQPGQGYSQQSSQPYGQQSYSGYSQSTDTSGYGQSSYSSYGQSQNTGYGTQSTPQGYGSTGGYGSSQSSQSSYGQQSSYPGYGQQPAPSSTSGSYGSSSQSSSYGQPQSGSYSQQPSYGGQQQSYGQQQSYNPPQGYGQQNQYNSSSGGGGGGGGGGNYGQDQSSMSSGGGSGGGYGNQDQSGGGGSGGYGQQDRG

For PRPRPRPRPRPRPRPRPRPRPRPRPRPRPRPRPRPR [maltose-binding protein (MBP)-PR18], the “stoichiometry N” value (Karyopherinβ2 (Kapβ2) [1]) was 2 and the “stoichiometry N” value (Karyopherinβ2 (Kapβ2) [2]) was 1 and ≥ 2.

B1: GST-Kapβ2 (natural protein)
chain: T1 sequence (looked up)
B1: binds (GTP-bound Ran (Q69L)).

GRGRGRGRGRGRGRGRGRGRGRGRGRGRGRGRGRGRGRGR [GR20]: binds (Karyopherinβ2 (Kapβ2) [3]).

PRPRPRPRPRPRPRPRPRPRPRPRPRPRPRPRPRPRPRPR [GFP fusion 20 repeats of PR (GFP:PR20)]: binds (Karyopherinβ2 (Kapβ2) [4]); binds [5].

PRPRPRPRPRPRPRPRPRPRPRPRPRPRPRPRPRPRPRPR [PR20]: binds (Karyopherinβ2 (Kapβ2) [3]).
